5 molecules from patent US20040259096A1, “Receptor capture assay” (priority 2001, published 2004) can be followed below.

The test system of one data set is HIF-1α. Briefly: Detecting HIF-1α activation in cytosolic extracts of HeLa S3 cells, anti-ARNT capture, real-time PCR. It is filed as cell-based, human. On the procedure: HIF-1 DNA binding activity was induced as follows. Actively dividing HeLa S3 cells were treated with 125 μM CoCl2 for 4 hr at 37° C. Cells were washed 2× in tissue culture dishes with ice cold phosphate-buffered saline (PBS) before harvesting. Cells were pelleted at 420×g for 5 min, washed twice with PBS and resuspended in 5 packed cell volumes of buffer A (10 mM Tris-HCl (pH 7.6), 1.5 mM MgCl2, 10 mM KCl, 1 mM DTT) supplemented with Sigma protease inhibitor cocktail (P 8340, Sigma Chemical Co., St. Louis, Mo.). After incubation on ice for 15 min, cells were pelleted at 450×g for 5 min, resuspended in 2 packed cell volumes of buffer C (0.42 M KCl, 20 mM Tris-HCl (pH 7.6), 20% glycerol, 1.5 MM MgCl2, 1 mM DTT and 0.2 mM EDTA) supplemented with Sigma protease inhibitor cocktail. The cells were disrupted using a Branson Sonifier 450 (Branson Ultrasonics Corp., Danbury, Conn.) fitted with a microtip for two 20-second pulses at a 45% duty cycle. After centrifugation at 20,000×g for 5 min, the supernatant was designated as cytosolic extract. The cytosolic extracts from treated and untreated cells were aliquoted and stored at −80° C. […]
Primers PRIHa and PRIHb (0.9 μM final) were added to 2×PCR SYBR® Green Master Mix (Applied Biosystems Cat No. 4309155) and the Master Mix made 1× with Water. […] 50 μl of master mix from each well was transferred to a PCR plate, capped and analyzed by real-time PCR using an Opticon thermocycler (MJ Research, Inc., Watham, Mass.). […]
In brief cytosolic extracts prepared from untreated or CoCl2 treated cells were diluted and exposed to nucleic acid-tracer. […] DNA amplification was monitored using real-time PCR. The process takes only a few hours to complete and provides qualitative or quantitative results.
The PCR data is typically plotted as a primary growth curve. For quantitative and comparative purposes, a threshold cycle (Ct) is defined for each sample. […] The Ct value is typically calculated near the first cycle where the PCR products are amplified at the greatest rate (no reagent is limiting) and where the amplified product is detectable above background. […]

Data set [1] has as its target T1, Glucocorticoid receptor (UniProt P04150 P04150:1-777). The data set can be described thus: competition; 100-fold excess reduces tracer signal 68 to 44. As to conditions: tags: baculovirus expressed, Panvera P2187 (so in the source).
Data set [2] has as its target T1, Glucocorticoid receptor. The data set can be described thus: anti-GR capture PCR; DMSO 82, dexamethasone 68; 25 mM Tris pH 7.9, 60 mM KCl, 4 C; ligand independent. The conditions noted are these: tags: baculovirus expressed, Panvera P2187 (so in the source).
In data set [3] the target is T2, Estrogen receptor alpha (Homo sapiens, UniProt P03372 P03372:1-595). Briefly: anti-ER capture PCR; DMSO 137, estradiol […]; 25 mM Tris pH 8.0, 50 mM KCl, 4 C; ligand independent. As to conditions: tags: baculovirus expressed, Panvera P2187; chain copies: 2.
Data set [4] addresses T2, Estrogen receptor alpha. Briefly: competition; 100-fold excess reduces tracer signal 104 to 81. As to conditions: tags: baculovirus expressed, Panvera P2187; chain copies: 2.

T2 sequence (P03372 whole entry, one chain of several): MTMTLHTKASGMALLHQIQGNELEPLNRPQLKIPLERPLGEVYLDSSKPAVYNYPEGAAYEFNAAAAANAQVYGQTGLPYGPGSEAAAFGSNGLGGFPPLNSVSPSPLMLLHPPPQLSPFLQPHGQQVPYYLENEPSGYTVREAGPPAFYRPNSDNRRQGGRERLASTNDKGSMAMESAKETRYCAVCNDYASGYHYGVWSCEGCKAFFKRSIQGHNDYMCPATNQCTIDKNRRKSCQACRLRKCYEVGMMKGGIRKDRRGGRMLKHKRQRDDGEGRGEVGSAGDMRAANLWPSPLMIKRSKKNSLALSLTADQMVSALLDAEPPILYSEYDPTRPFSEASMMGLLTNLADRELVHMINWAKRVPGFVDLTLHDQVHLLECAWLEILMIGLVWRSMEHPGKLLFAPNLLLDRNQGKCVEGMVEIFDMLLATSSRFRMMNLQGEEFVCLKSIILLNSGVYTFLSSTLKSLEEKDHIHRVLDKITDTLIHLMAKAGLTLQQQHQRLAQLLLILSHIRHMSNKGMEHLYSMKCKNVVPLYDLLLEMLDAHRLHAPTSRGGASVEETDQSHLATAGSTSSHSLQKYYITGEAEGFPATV
T1 sequence (P04150 whole entry, one chain of several): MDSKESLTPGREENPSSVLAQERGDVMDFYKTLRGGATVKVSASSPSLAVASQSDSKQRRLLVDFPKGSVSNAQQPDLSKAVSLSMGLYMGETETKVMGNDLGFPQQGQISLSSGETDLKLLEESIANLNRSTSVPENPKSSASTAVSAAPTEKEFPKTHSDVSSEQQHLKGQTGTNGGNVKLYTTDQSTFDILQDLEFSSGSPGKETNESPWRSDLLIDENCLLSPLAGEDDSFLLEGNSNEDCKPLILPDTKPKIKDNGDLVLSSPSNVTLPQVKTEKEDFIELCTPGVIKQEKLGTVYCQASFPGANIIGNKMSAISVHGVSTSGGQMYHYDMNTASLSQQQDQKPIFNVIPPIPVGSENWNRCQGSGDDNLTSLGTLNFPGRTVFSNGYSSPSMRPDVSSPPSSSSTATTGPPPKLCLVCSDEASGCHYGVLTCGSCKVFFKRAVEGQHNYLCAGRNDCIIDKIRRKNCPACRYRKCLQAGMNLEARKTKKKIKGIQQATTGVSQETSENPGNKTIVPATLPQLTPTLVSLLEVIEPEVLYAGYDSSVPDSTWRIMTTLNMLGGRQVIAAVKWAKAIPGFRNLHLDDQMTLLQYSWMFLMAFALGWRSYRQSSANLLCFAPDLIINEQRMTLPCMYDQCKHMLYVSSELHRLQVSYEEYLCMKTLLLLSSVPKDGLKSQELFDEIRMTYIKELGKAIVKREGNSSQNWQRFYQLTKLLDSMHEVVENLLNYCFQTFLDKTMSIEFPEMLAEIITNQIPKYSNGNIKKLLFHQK

For `[Cl][Co][Cl]` [CoCl2, cobalt chloride], the “Ct Value” with HIF-1α (cytosol of treated cells (CoCl2), plus 100x DNA competitor) was determined as 22.52; in the data set with HIF-1α (cytosol of treated cells (CoCl2, 4 hr), no DNA competitor, untreated 23.08) it was 20.47. In addition, the “difference of Ct values, treated versus untreated cytosolic preparations” value in the data set with HIF-1α (no DNA competitor) is listed as “more than 2.60 units”.

B1: competitor GRE (TGR1/TGR2) (dsDNA)
DNA 1: GCTGTACAGGATGTTCTGCC
DNA 2: GGCAGAACATCCTGTACAGC
Take B1: the binding result in the data set with Glucocorticoid receptor [1] was “binds”.

B2: GRE tracer (BGGR1/BGGR2) (dsDNA)
DNA 1: CAACTTCATCCACGTTCACCGCTGTACAGGATGTTCTGCCGTACCTGTCCTTGGCTCTTC
DNA 2: GAAGAGCCAAGGACAGGTACGGCAGAACATCCTGTACAGCGGTGAACGTGGATGAAGTTG
Turning to B2, the binding result in the data set with Glucocorticoid receptor [2] is given as “binds”.

B3: ERE tracer (VER1/VER2) (dsDNA)
DNA 1: CAACTTCATCCACGTTCACCGTCCAAAGTCAGGTCACAGTGACCTGATCAAAGTTGTACCTGTCCTTGGCTCTTC
DNA 2: GAAGAGCCAAGGACAGGTACAACTTTGATCAGGTCACTGTGACCTGACTTTGGACGGTGAACGTGGATGAAGTTG
Turning to B3, the binding result with Estrogen receptor alpha [3] is “binds”.

B4: competitor ERE (DX1/DX3) (dsDNA)
DNA 1: CTAGAAAGTCAGGTCACAGTGACCTG
DNA 2: CAGGTCACTGTGACCTGACTTTCTAG
As to B4, in the data set with Estrogen receptor alpha [4], the binding result is on record as “binds”.
